Patent USRE47103 (AGENSYS, dated 2018)

T1: 158P1D7 protein expressed on the cell surface (human, UniProt Q9H5Y7 27-841)
T1 construct: No signal peptide limits are stated; also called SLITRK6; SLITRK-6
T1 sequence: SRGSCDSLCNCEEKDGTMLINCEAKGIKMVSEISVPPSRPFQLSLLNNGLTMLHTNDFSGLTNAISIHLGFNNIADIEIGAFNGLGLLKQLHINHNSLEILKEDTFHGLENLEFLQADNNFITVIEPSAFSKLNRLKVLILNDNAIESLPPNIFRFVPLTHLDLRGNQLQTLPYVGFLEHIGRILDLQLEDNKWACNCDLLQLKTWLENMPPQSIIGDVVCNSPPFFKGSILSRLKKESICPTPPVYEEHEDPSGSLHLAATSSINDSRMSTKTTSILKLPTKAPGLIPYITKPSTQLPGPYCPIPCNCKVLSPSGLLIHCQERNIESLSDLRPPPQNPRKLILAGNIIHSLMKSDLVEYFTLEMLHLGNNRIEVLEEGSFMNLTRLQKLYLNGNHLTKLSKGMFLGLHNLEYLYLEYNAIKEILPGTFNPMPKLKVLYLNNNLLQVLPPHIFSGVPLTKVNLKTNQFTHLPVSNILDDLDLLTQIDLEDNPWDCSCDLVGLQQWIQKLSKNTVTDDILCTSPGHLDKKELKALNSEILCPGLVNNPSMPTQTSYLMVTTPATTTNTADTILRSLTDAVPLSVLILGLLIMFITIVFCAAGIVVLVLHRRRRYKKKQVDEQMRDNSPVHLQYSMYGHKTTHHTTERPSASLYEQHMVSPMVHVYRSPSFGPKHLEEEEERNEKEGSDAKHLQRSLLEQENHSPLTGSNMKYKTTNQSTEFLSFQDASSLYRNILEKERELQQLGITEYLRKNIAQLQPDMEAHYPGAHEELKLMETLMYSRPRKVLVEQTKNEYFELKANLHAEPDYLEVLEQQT

B1: 158P1D7 MAb Ha15-10ac12 (antibody, human IgG2, kappa, V domains shown)
VH: QVQLVESGGGVVQPGRSLRLSCAASGFTFSSYGMHWVRQAPGKGLEWVAVIWYDGSNQYYADSVKGRFTISRDNSKNTLFLQMHSLRAEDTAVYYCARGLTSGRYGMDVWGQGTTVTVSS
VL: DIVMTQSPLSLPVTPGEPASISCRSSQSLLLSHGFNYLDWYLQKPGQSPQLLIYLGSSRASGVPDRFSGSGSGTDFTLKISRVEAEDVGLYYCMQPLQIPWTFGQGTKVEIKR
notes: Fully human IgG2 kappa antibody from XenoMouse; It was tested both as material purified from the hybridoma and as recombinant material from CHO-K1SV cells; also called Ha15-10ac12 MAb
B2: Ha15-10ac12vcMMAE (other)
heavy: QVQLVESGGGVVQPGRSLRLSCAASGFTFSSYGMHWVRQAPGKGLEWVAVIWYDGSNQYYADSVKGRFTISRDNSKNTLFLQMHSLRAEDTAVYYCARGLTSGRYGMDVWGQGTTVTVSSASTKGPSVFPLAPCSRSTSESTAALGCLVKDYFPEPVTVSWNSGALTSGVHTFPAVLQSSGLYSLSSVVTVPSSNFGTQTYTCNVDHKPSNTKVDKTVERKCCVECPPCPAPPVAGPSVFLFPPKPKDTLMISRTPEVTCVVVDVSHEDPEVQFNWYVDGVEVHNAKTKPREEQFNSTFRVVSVLTVVHQDWLNGKEYKCKVSNKGLPAPIEKTISKTKGQPREPQVYTLPPSREEMTKNQVSLTCLVKGFYPSDIAVEWESNGQPENNYKTTPPMLDSDGSFFLYSKLTVDKSRWQQGNVFSCSVMHEALHNHYTQKSLSLSPGK
light: DIVMTQSPLSLPVTPGEPASISCRSSQSLLLSHGFNYLDWYLQKPGQSPQLLIYLGSSRASGVPDRFSGSGSGTDFTLKISRVEAEDVGLYYCMQPLQIPWTFGQGTKVEIKRTVAAPSVFIFPPSDEQLKSGTASVVCLLNNFYPREAKVQWKVDNALQSGNSQESVTEQDSKDSTYSLSSTLTLSKADYEKHKVYACEVTHQGLSSPVTKSFNRGEC
modifications: vcMMAE (Val-Cit linker with monomethyl auristatin E) on cysteine sulfur atoms after partial reduction of disulfides with TCEP; positions not given; vcMMAE (Val-Cit linker with monomethyl auristatin E) on cysteine sulfur atoms after partial reduction of disulfides with TCEP; positions not given; preferred p between 3.5 and 3.7 drugs per antibody
notes: also called 158P1D7 ADC; Ha15ac12vcMMAE

Tests used:
[1] = molecular target: T1, 158P1D7 protein expressed on the cell …; experiment: binding to 158P1D7 expressing cells; method not given
[2] = molecular target: T1, 158P1D7 protein expressed on the cell …; experiment: FACS saturation binding on SW780 cells, one site binding fit (Graphpad Prism)

Binder	binding result [1]	Kd [2] [pM]
B1	binds	–
B2	–	5
